One block for each substance: values may come before it.
Legend:
[1] = target: DIP-ι ectodomain (Phe23-Ala325) (Drosophila melanogaster); test: SPR
[2] = target: DIP-β ectodomain (isoform C Ile82-Glu408) (Drosophila melanogaster); test: SPR
[3] = target: DIP-α ectodomain (isoform A Phe40-Pro341) (Drosophila melanogaster); test: SPR
[4] = target: DIP-ε ectodomain (Glu50-Ser351) (Drosophila melanogaster); test: SPR
[5] = target: DIP-ζ ectodomain (isoform A Glu111-Tyr412) (Drosophila melanogaster); test: SPR
[6] = target: DIP-η ectodomain (isoform B Gln31-Pro338) (Drosophila melanogaster); test: SPR
[7] = target: DIP-θ ectodomain (Asp128-Pro423) (Drosophila melanogaster); test: SPR
[8] = target: Dpr12 ectodomain (Dpr12C Ser72-Asp285) (Drosophila melanogaster); test: AUC
[9] = target: DIP-η ectodomain (isoform B Gln31-Pro338) (Drosophila melanogaster); test: AUC
[10] = target: DIP-ζ ectodomain (isoform A Glu111-Tyr412) (Drosophila melanogaster); test: AUC
[11] = target: Dpr21 ectodomain (Asp48-Asp253) (Drosophila melanogaster); test: AUC
[12] = target: DIP-α ectodomain (isoform A Phe40-Pro341) (Drosophila melanogaster); test: AUC

Substance: Dpr10 ectodomain (Dpr10D Trp50-Glu255) (domain or fragment)
Kd [2]: 54.9 µM

Substance: Dpr4 K82H K136V ectodomain (domain or fragment)
Kd [3]: 44.9 µM
fold weaker binding than wild-type Dpr4 [6]: > 4 fold
fold weaker binding than wild-type Dpr4 [7]: > 4 fold

Substance: Dpr4 D74N A76T K82H K136V ectodomain (domain or fragment)
Kd [3]: 16 µM

Substance: DIP-η ectodomain (isoform B Gln31-Pro338) (domain or fragment)
Kd [9]: 35.4 µM

Substance: Dpr6 ectodomain (Dpr6C Trp70-Glu275) (domain or fragment)
Kd [2]: 19.4 µM

Substance: DIP-ζ ectodomain (isoform A Glu111-Tyr412) (domain or fragment)
Kd [10]: 22.2 µM

Substance: DIP-α ectodomain (isoform A Phe40-Pro341) (domain or fragment)
Kd [12]: 23.9 µM

Substance: Dpr11 ectodomain (Dpr11B Leu114-Glu324) (domain or fragment)
Kd [2]: 94 µM

Substance: Dpr4 K82H ectodomain (domain or fragment)
Kd [3]: > 400 µM

The remaining lines, values ahead:

Kd [1]: 136 µM
Substance: Dpr7 ectodomain (Dpr7F Thr37-Glu269) (domain or fragment)

fold decrease in binding against wild-type Dpr6 [3]: 25 fold
Substance: Dpr6 H110K ectodomain (domain or fragment)

Kd [4]: 69.2 µM
Kd [5]: 106 µM
Substance: Dpr14 ectodomain (Dpr14A Thr26-Glu283) (domain or fragment)

Kd [8]: 71.3 µM
Substance: Dpr12 ectodomain (Dpr12C Ser72-Asp285) (domain or fragment)

Kd [4]: 21.2 µM
Kd [5]: 24.7 µM
Substance: Dpr18 ectodomain (His214-Glu478) (domain or fragment)

Kd [6]: 119 µM
Kd [7]: 72 µM
Substance: Dpr6 N102D H110K V164K ectodomain (domain or fragment)

Kd [11]: 49.1 µM
Substance: Dpr21 ectodomain (Asp48-Asp253) (domain or fragment)

Kd [6]: 41 µM
Kd [1]: 22.4 µM
Substance: Dpr2 ectodomain (Dpr2F Tyr103-Glu323) (domain or fragment)

Source: PMC6309224
